No end group written: not given here.
T1: BMP-12 (Homo sapiens, UniProt Q7Z4P5)
T1 sequence (Q7Z4P5 322-450): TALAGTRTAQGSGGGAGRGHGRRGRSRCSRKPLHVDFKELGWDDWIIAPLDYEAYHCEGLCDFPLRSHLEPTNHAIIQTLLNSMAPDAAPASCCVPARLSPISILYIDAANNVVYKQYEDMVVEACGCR

T2: BMP-12 (UniProt Q7Z4P5 322-450, limits assumed)
T2 construct: also called BMP12/GDF7
T2 sequence (looked up): T1 sequence (Q7Z4P5 322-450)


What was measured:
BMP-12 [1] = biological target: T1, BMP-12; assay: Filter-plate binding and elution of BMP-12 on peptide-coupled affinity resins
Description: The coupled resins, plus an unconjugated resin for use as a control, were suspended in 16% ethanol, 150 mM NaCl, and 20 mM Tris buffer at pH 7.5 at a 25% v/v ratio (e.g., […]). A Tecan liquid-handling robot was employed to aliquot 200 μL of each slurry into one of eight rows of a 96 well polystyrene filter plate (0.45 μm hydrophilic filters, Whatman catalog number 770-1806). Spinning at 1200 g for 3 min removed the liquid phase, leaving 50 μL of wet resin on the filters. The resins were then equilibrated with the loading buffers listed in Table 6 (K is a coefficient characterizing the strength of protein binding to a particular resin in a particular buffer). […] The resins were loaded by transferring 150 μL from the load plate to the filter plate and then incubating 20 min on a shaking platform to facilitate binding. The filter plate was spun down and the filtrate collected in a 96 well UV plate. The protein concentration in the filtrate, or flow-through, was calculated as (A280-A320)/1.3. The filter plate was then washed with 150 μL of 100 mM acetic acid, followed by 150 μL of 4M guanidine-HCl and 50 mM sodium acetate at pH 4.0. The protein concentration was measured in the new filtrate as described above. […] However, for peptides 750 and 751, the binding was strong in 25 mM MES at pH 6 but weak in 50 mM acetic acid with 0.1 M NaCl at pH 3.0, which can allow an efficient binding-elution process without the need for chaotrops or organic reagents. Flow-through and acetic acid elution samples from column 4 of the plate (loaded with MES pH 6) were analyzed on a gel (FIG. 14).

BMP-12 [2] = biological target: T2, BMP-12; assay: peptide resin, filter plate; load 5: 25 mM HEPES pH 7.0
Description: (§1) The coupled resins, plus an unconjugated resin for use as a control, were suspended in 16% ethanol, 150 mM NaCl, and 20 mM Tris buffer at pH 7.5 at a 25% v/v ratio (e.g., 25% ethanol, 75% Tris buffer). A Tecan liquid-handling robot was employed to aliquot 200 μL of each slurry into one of eight rows of a 96 well polystyrene filter plate (0.45 μm hydrophilic filters, Whatman catalog number 770-1806). Spinning at 1200 g for 3 min removed the liquid phase, leaving 50 μL of wet resin on the filters. The resins were then equilibrated with the loading buffers listed in Table 6 (K is a coefficient characterizing the strength of protein binding to a particular resin in a particular buffer). […] The resins were loaded by transferring 150 μL from the load plate to the filter plate and then incubating 20 min on a shaking platform to facilitate binding. The filter plate was spun down and the filtrate collected in a 96 well UV plate. The protein concentration in the filtrate, or flow-through, was calculated as $(A280-A320)/1.3$. The filter plate was then washed with 150 μL of 100 mM acetic acid, followed by 150 μL of 4M guanidine-HCl and 50 mM sodium acetate at pH 4.0. The protein concentration was measured in the new filtrate as described above. […] Flow-through and acetic acid elution samples from column 4 of the plate (loaded with MES pH 6) were analyzed on a gel (FIG. 14).

BMP-12 [3] = biological target: T2, BMP-12; assay: peptide resin, filter plate; load 6: 1M CHES pH 9.7
Description: as §1

BMP-12 [4] = biological target: T2, BMP-12; assay: peptide resin, filter plate; load 3: 25 mM Na Acetate pH 5.0
Description: as §1

BMP-12 [5] = biological target: T2, BMP-12; assay: peptide resin, filter plate; load 10: 50 mM Tris, 0.1 M NaCl, 40% MPD, pH 8.0
Description: as §1

BMP-12 [6] = biological target: T2, BMP-12; assay: peptide resin, filter plate; load 2: 50 mM Acetic Acid, 0.1 M NaCl, pH 4.0
Description: as §1

BMP-12 [7] = biological target: T2, BMP-12; assay: peptide resin, filter plate; load 1: 50 mM Acetic Acid, 0.1 M NaCl, pH 2.9
Description: as §1

BMP-12 [8] = biological target: T2, BMP-12; assay: peptide resin, filter plate; load 12: 50 mM Tris, 0.1 M NaCl, 20% MPD, pH 8.0
Description: as §1

BMP-12 [9] = biological target: T2, BMP-12; assay: peptide resin, filter plate; load 4: 25 mM MES pH 6.0
Description: as §1

BMP-12 [10] = biological target: T2, BMP-12; assay: peptide resin, filter plate; load 11: 50 mM Tris, 0.25 M NaCl, 30% MPD, pH 8.0
Description: as §1

[11] = 50 mM acetic acid with 0.1 M NaCl at pH 3.0
[12] = loaded in condition 1: 50 mM Acetic Acid, 0.1 M NaCl, pH 2.9
[13] = loaded in condition 2: 50 mM Acetic Acid, 0.1 M NaCl, pH 4.0
[14] = loaded in condition 3: 25 mM Na Acetate pH 5.0
[15] = loaded in condition 4: 25 mM MES pH 6.0
[16] = loaded in condition 5: 25 mM HEPES pH 7.0

Yield (BMP-12 recovered from resin) (BMP-12 [1]; [12])	Yield (BMP-12 recovered from resin) (BMP-12 [1]; [13])	Yield (BMP-12 recovered from resin) (BMP-12 [1]; [14])	Yield (BMP-12 recovered from resin) (BMP-12 [1]; [15])	Yield (BMP-12 recovered from resin) (BMP-12 [1]; [16])	binding of BMP12 by resin coupled to peptide (BMP-12 [1]; loading buffers 1-5)	100 mM HAc elution K (BMP-12 [2])	100 mM HAc elution conc (BMP-12 [2])	4M Gnd, 50 mM NaAc pH 4 Strip Conc (BMP-12 [2])	Flow-through K (BMP-12 [2])	Flow-through conc (BMP-12 [2])	Flow-through K (BMP-12 [3])	Flow-through conc (BMP-12 [3])	100 mM HAc elution K (BMP-12 [4])	100 mM HAc elution conc (BMP-12 [4])	4M Gnd, 50 mM NaAc pH 4 Strip Conc (BMP-12 [4])	Flow-through K (BMP-12 [4])	Flow-through conc (BMP-12 [4])	Flow-through K (BMP-12 [5])	Flow-through conc (BMP-12 [5])	Molecule	also measured
100%	93%	96%	85%	109%	–	–	–	–	–	–	–	–	–	–	–	–	–	–	–	Ac-SDVGWNDWIVAPPGYHAFYCHGEK [Peptide 750]	binding of BMP12 by resin coupled to peptide (BMP-12 [1]; 25 mM MES at pH 6): strong; binding of BMP12 by resin coupled to peptide (BMP-12 [1]; [11]): weak
85%	84%	89%	87%	87%	high affinity	–	–	–	–	–	–	–	–	–	–	–	–	–	–	Ac-RDLGWQDWIIAPEGYAAFYSDGEK [Peptide 748]	–
81%	68%	90%	88%	90%	high affinity	–	–	–	–	–	–	–	–	–	–	–	–	–	–	Ac-LYVDFSDVGWNDWIVAPPGYHAFYSHGEK [Peptide 747]	–
100%	103%	105%	116%	103%	–	–	–	–	–	–	–	–	–	–	–	–	–	–	–	Ac-VAPPGYHAFYSHGEK [Peptide 745]	–
104%	97%	100%	92%	107%	–	–	–	–	–	–	–	–	–	–	–	–	–	–	–	Ac-SDVGWNDWIVAPPGYHAFYSHGEK [Peptide 751]	binding of BMP12 by resin coupled to peptide (BMP-12 [1]; 25 mM MES at pH 6): strong; binding of BMP12 by resin coupled to peptide (BMP-12 [1]; [11]): weak
91%	88%	97%	87%	100%	–	–	–	–	–	–	–	–	–	–	–	–	–	–	–	Ac-LYV**SDVGWNDWIVK (Ac-LYVSDVGWNDWIVK; not fully specified (residue 3); printed as Ac-LYV**SDVGWNDWIVK) [Peptide 746]	–
86%	88%	90%	88%	102%	high affinity	–	–	–	–	–	–	–	–	–	–	–	–	–	–	Ac-ELGWDDWIIAPLDYEAYHSEGLK [Peptide 749]	–
–	–	–	–	–	–	1	0.255 mg/mL	0.074 mg/ml	11	0.103 mg/mL	-1	0.659 mg/mL	2	0.274 mg/mL	0.111 mg/ml	28	0.046 mg/mL	0	0.482 mg/mL	Ac-LYVDFSDVGWNDWIVAPPGYHAFYSHGEK [BMP2 Full peptide 747]	100 mM HAc elution K (BMP-12 [6]): 6; 100 mM HAc elution conc (BMP-12 [6]): 0.147 mg/mL; 4M Gnd, 50 mM NaAc pH 4 Strip Conc (BMP-12 [6]): 0.15 mg/ml; Flow-through K (BMP-12 [6]): 47; Flow-through conc (BMP-12 [6]): 0.029 mg/mL; 100 mM HAc elution K (BMP-12 [7]): 6; 100 mM HAc elution conc (BMP-12 [7]): 0.123 mg/mL; 4M Gnd, 50 mM NaAc pH 4 Strip Conc (BMP-12 [7]): 0.15 mg/ml; Flow-through K (BMP-12 [7]): 10; Flow-through conc (BMP-12 [7]): 0.114 mg/mL; Flow-through K (BMP-12 [8]): 0; Flow-through conc (BMP-12 [8]): 0.438 mg/mL; 100 mM HAc elution K (BMP-12 [9]): 1; 100 mM HAc elution conc (BMP-12 [9]): 0.324 mg/mL; 4M Gnd, 50 mM NaAc pH 4 Strip Conc (BMP-12 [9]): 0.065 mg/ml; Flow-through K (BMP-12 [9]): 38; Flow-through conc (BMP-12 [9]): 0.035 mg/mL; Flow-through K (BMP-12 [10]): 0; Flow-through conc (BMP-12 [10]): 0.45 mg/mL
–	–	–	–	–	–	2	0.257 mg/mL	0.105 mg/ml	23	0.055 mg/mL	-1	0.626 mg/mL	2	0.264 mg/mL	0.14 mg/ml	57	0.024 mg/mL	1	0.407 mg/mL	Ac-RDLGWQDWIIAPEGYAAFYSDGEK [BMP5 peptide 748]	100 mM HAc elution K (BMP-12 [6]): 6; 100 mM HAc elution conc (BMP-12 [6]): 0.151 mg/mL; 4M Gnd, 50 mM NaAc pH 4 Strip Conc (BMP-12 [6]): 0.229 mg/ml; Flow-through K (BMP-12 [6]): 59; Flow-through conc (BMP-12 [6]): 0.023 mg/mL; 100 mM HAc elution K (BMP-12 [7]): 6; 100 mM HAc elution conc (BMP-12 [7]): 0.123 mg/mL; 4M Gnd, 50 mM NaAc pH 4 Strip Conc (BMP-12 [7]): 0.177 mg/ml; Flow-through K (BMP-12 [7]): 11; Flow-through conc (BMP-12 [7]): 0.106 mg/mL; Flow-through K (BMP-12 [8]): 1; Flow-through conc (BMP-12 [8]): 0.383 mg/mL; 100 mM HAc elution K (BMP-12 [9]): 2; 100 mM HAc elution conc (BMP-12 [9]): 0.304 mg/mL; 4M Gnd, 50 mM NaAc pH 4 Strip Conc (BMP-12 [9]): 0.091 mg/ml; Flow-through K (BMP-12 [9]): 62; Flow-through conc (BMP-12 [9]): 0.022 mg/mL; Flow-through K (BMP-12 [10]): 1; Flow-through conc (BMP-12 [10]): 0.375 mg/mL
–	–	–	–	–	–	1	0.28 mg/mL	0.093 mg/ml	9	0.116 mg/mL	-1	0.653 mg/mL	2	0.275 mg/mL	0.126 mg/ml	42	0.032 mg/mL	0	0.434 mg/mL	Ac-ELGWDDWIIAPLDYEAYHSEGLK [BMP12 N-trun_1S peptide 749]	100 mM HAc elution K (BMP-12 [6]): 4; 100 mM HAc elution conc (BMP-12 [6]): 0.175 mg/mL; 4M Gnd, 50 mM NaAc pH 4 Strip Conc (BMP-12 [6]): 0.196 mg/ml; Flow-through K (BMP-12 [6]): 26; Flow-through conc (BMP-12 [6]): 0.05 mg/mL; 100 mM HAc elution K (BMP-12 [7]): 6; 100 mM HAc elution conc (BMP-12 [7]): 0.098 mg/mL; 4M Gnd, 50 mM NaAc pH 4 Strip Conc (BMP-12 [7]): 0.141 mg/ml; Flow-through K (BMP-12 [7]): 5; Flow-through conc (BMP-12 [7]): 0.175 mg/mL; Flow-through K (BMP-12 [8]): 1; Flow-through conc (BMP-12 [8]): 0.404 mg/mL; 100 mM HAc elution K (BMP-12 [9]): 1; 100 mM HAc elution conc (BMP-12 [9]): 0.321 mg/mL; 4M Gnd, 50 mM NaAc pH 4 Strip Conc (BMP-12 [9]): 0.079 mg/ml; Flow-through K (BMP-12 [9]): 56; Flow-through conc (BMP-12 [9]): 0.025 mg/mL; Flow-through K (BMP-12 [10]): 0; Flow-through conc (BMP-12 [10]): 0.416 mg/mL
